Laboratory results reported in patent US20060024297A1 (published 2006).

How the values were obtained:
[1] = target: T1, human Tie1, full length, V5-tagged (pcDNA3-Tie1-V5), in transiently transfected COS1 cells (human, UniProt P35590 25-1138); experiment: Western blot, Tie1-V5-transfected COS1
T1 construct: it is not expressly tied to the pcDNA3-Tie1-V5 construct; also called Tie1-transfected; transfected Tie1
Description: (§1) COS1 cells were transfected with pcDNA3-Tie1-V5 (1 μg DNA per 10 cm cell culture plate) using FUGENE 6 (Roche) according to manufacturer's instruction and incubated for 48 h before stimulation. For immunoprecipitation, Tie1 transfected cells and HMVEC cells were lysed in DOC-RIPA lysis buffer (50 mM Tris-HCl pH 8.0, 150 mM NaCl, 1% Triton-X-100, 0.1% SDS, 1% DOC, 10 mM EDTA) supplemented with aprotinin, leupeptin, PMSF and sodium vanadate. Immunoprecipitation was carried out from equal amount of cell lysates by incubating with polyclonal anti-human Tie1 antibodies (R&D), monoclonal anti-V5 antibodies (Invitrogen) or altogether 23 anti-Tie1 antibodies (1μg/ml) for 1 to 2 h followed by incubation with protein G-Sepharose (Amersham Pharmacia Biotech AB) for 1 h. The immunoprecipitates were washed twice with PBS-T and twice with PBS, followed by elution with the Laemmli buffer and separation in 8% SDS-PAGE. The blots were probed with the 23 anti-Tie1 antibodies (5 μg/ml) and subsequently anti-human Fc antibodies conjugated with HRP.
(§2) Next, to find out if the anti-Tie1 antibodies recognize Tie1 in living cells, those cells were studied by immunofluorescence staining.

[2] = target: T2, endogenous human Tie1 of primary human endothelial cells (HDMEC/HDMVEC, HUVEC) and human tissues (human, UniProt P35590 25-1138); experiment: Western blot, HDMEC
T2 construct: also called endogenous Tie1; Tie-1 in HUVEC
Description: as §1, §2

[3] = target: T3, recombinant mouse Tie1-Fc (mouse, UniProt Q06806 23-755, limits assumed); experiment: BIAcore, Fab over biotinylated mouse Tie1-Fc on streptavidin chip, 1:1 fit
T3 construct: also called Tie-1 Fc Mouse; not shown: Fc
T3 sequence (looked up): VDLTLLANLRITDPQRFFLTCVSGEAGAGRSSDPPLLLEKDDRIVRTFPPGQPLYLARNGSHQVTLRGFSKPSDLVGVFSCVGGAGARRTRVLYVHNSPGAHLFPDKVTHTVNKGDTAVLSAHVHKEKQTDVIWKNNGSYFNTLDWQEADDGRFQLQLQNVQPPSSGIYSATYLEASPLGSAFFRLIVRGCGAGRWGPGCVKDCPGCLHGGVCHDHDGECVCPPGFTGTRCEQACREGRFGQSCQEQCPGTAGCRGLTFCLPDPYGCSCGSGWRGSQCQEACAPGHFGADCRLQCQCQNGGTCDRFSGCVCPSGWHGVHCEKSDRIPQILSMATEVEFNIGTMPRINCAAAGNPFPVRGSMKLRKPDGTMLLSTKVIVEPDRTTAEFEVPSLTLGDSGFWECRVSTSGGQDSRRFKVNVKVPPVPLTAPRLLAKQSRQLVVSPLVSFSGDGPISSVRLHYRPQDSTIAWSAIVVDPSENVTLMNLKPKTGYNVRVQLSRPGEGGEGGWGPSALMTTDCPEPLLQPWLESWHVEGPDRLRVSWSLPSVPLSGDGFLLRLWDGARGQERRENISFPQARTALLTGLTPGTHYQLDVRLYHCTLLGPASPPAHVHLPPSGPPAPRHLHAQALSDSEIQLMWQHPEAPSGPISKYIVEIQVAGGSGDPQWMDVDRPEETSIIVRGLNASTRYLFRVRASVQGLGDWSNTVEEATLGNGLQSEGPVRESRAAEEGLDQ
Description: Mouse Tie 1-Fc antigen (0.5 mg/ml stock) was biotinylated using established procedures and after dilution 1/100 fold in HBS this was then used for capturing to a streptavidin chip. This was coated to a resonance value of 740RU. All analysis was performed in HBS buffer. […] Serial dilutions were made of each Fab preparation to obtain 10 nM, 5 nM, 2.5 nM, and 1.25 nM. For the association phase samples were injected at 30 μl/min for 4 minutes using kinject program. This was followed by a 10 minutes dissociation phase, any remaining sample was stripped from the Tie-1 Fc surface at a flow of 50 μl/min with a single injection of 50 mM NaOH+1 M NaCl for 18 seconds. All samples were run and analyzed in duplicate.
(§3) Sensorgrams were analyzed using the simultaneous ka/kd fitting program with 1:1 model in the BIAEVALUATION™ software 3.1.

[4] = target: T4, recombinant human Tie1-Fc (Tie1 extracellular domain fused to human Fc) (human, UniProt P35590 25-759); experiment: BIAcore, Fab over biotinylated human Tie1-Fc on streptavidin chip, 1:1 fit
T4 construct: also called Tie-1 Fc Human; not shown: human Fc
T4 sequence: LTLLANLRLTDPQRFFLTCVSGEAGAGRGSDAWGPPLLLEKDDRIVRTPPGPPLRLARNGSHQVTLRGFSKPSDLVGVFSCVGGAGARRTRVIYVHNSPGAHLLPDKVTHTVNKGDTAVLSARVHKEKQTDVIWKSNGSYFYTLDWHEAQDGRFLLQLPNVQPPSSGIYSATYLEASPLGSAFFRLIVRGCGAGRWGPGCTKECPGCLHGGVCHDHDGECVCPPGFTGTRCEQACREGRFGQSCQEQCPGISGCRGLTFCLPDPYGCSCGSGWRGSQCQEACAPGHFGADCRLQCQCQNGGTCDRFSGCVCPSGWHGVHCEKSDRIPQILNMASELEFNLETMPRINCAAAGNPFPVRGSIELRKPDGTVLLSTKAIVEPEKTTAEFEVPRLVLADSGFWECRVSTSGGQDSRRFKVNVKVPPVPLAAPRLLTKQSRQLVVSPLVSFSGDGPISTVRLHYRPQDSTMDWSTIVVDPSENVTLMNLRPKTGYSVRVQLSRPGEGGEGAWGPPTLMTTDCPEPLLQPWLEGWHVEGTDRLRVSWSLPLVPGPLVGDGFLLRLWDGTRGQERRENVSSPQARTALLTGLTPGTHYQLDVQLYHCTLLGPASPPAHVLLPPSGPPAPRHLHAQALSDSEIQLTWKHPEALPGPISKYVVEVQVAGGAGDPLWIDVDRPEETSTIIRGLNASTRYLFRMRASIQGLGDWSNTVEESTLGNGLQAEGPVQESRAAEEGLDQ
Description: Recombinant purified human Tie1-Fc antigen (Stock 2.45 mg/ml) was biotinylated using the EZ-link Sulfo-NHS-SS-Biotin (Pierce, Cat. 21331). The reaction was performed for 2 hours on ice in 50 mM sodium carbonate buffer, pH 9.6, in the presence of a 5-fold molar excess of biotinylating agent and was stopped by the addition of Tris-HCl, pH 7.5 (50 mM final concentration) followed by a 1-hour incubation on ice. Samples were then dialyzed against PBS. The antigen was then diluted 1/100 fold in HBS and was then captured onto a streptavidin chip. This was coated to a density of 830RU (resonance units). All analysis was performed in HBS buffer. […] Serial dilutions were made of each Fab preparation to obtain 10 nM, 5 nM, 2.5 nM, and 1.25 nM solutions. For the association phase samples were injected at 30 μl/min for 4 minutes using kinject program. This was followed by a 10 minutes dissociation phase, any remaining sample was stripped from the Tie-1 Fc surface at a flow of 50 μl/min with a single injection of 5 mM NaOH+1M NaCl for 18 seconds. All samples were run and analyzed in duplicate.
as §3

[5] = target: T4, recombinant human Tie1-Fc (Tie1 …); experiment: BIAcore, Fab over human Tie-1/Fc coupled to CM5 chip, 1:1 fit
Description: Recombinant human Tie-1/Fc was coated on a CM5 chip. The surface of the chip was first activated with a 7-minute pulse of 0.05 M NHS/0.2 M EDC, then Tie-1/Fc (2 μg/ml in 10 mM sodium acetate, pH 4.0) was run over the chip surface until 750 RUs were coated on the surface. All flow cells were subsequently deactivated with a 7-minute pulse of 1 M ethanolamine hydrochloride, pH 8.5. All further experiments were performed in HBS buffer.
A series of dilution (50, 25, 12.5, 6.25 and 3.125 nM) was prepared in HBS buffer. Samples were injected at 30 μl/min for 5.3 minutes using the KINJECT™ program. This was followed by a 10-minute dissociation phase, and the remaining Fab was stripped from the surface with a single 18-sec injection of 50 mM NaOH/1 M NaCl.
Sensorgrams were analyzed using the simultaneous ka/kd fitting program from the BIAEVALUATION™ software 3.1 assuming a 1:1 model.

B1: P-F4 IgG (anti-Tie1 isolate p-F4, human IgG1) (antibody, V domains shown)
VH: EVQLLESGGGLVQPGGSLRLSCAASGFTFSAYMMSWVRQAPGKGLEWVSSIYPSGGYTYYADSVKGRFTISRDNSKNTLYLQMNSLRAEDTAVYYCARGLRGGPDYWGQGTLVTVSS
VL: DIQMTQSPSTLSAYVGDSVTITCRASQSVRRSLAWYQQRPGKAPKSLIYKASTLETGVPPRFSGSGSGTEFTLTISSLQPEDSAIYYCQQYGSFPLTFGGG
notes: the VL entry stops within FR4
[1]
  binding result: binds
[2]
  binding result: binds

B2: P-G3 IgG (anti-Tie1 isolate p-G3, human IgG1) (antibody, V domains shown)
VH: EVQLLESGGGLVQPGGSLRLSCAASGFTFSHYMMVWVRQAPGKGLEWVSSIYPSGGWTYYADSVKGRFTISRDNSKNTLYLQMNSLRAEDTAVYYCARLDYGGNSAYFDYWGQGTLVTVSS
VL: QSVLTQPHSVSASPGKTVTISCTRSSGNIASNFVQWYQQRPGSVPTTVIYEDDRRPSGVPDRFSGSIDSSSNSAFLSISGLKTEDEADYYCQSHDRTTRAWVFGGGTKL
notes: lambda VL entry stops within FR4
[1]
  binding result: binds
[2]
  binding result: binds

B3: P-F3 IgG (anti-Tie1 isolate p-F3, human IgG1) (antibody, V domains shown)
VH: EVQLLESGGGLVQPGGSLRLSCAASGFTFSMYGMGWVRQAPGKGLEWVSVISPSGGQTAYADSVKGRFTISRDNSKNTLYLQMNSLRAEDTAVYYCARVALLLGHAFDIWGQGTMVTVSS
VL: DIQMTQSPSTLSASLGDRVTITCRASESISRWLAWYQQKPGKAPKLLMYEASTLESGVPSRFTGTGSGTEFTLTISSLQPDDFATYYCQQRSNWPLTFGGG
notes: the VL entry stops within FR4
[1]
  binding result: binds
[2]
  binding result: binds

B4: P-C6 IgG (anti-Tie1 isolate p-C6, human IgG1) (antibody, V domains shown)
VH: EVQLLESGGGLVQPGGSLRLSCAASGFTFSHYGMTWVRQAPGKGLEWVSVISPSGGQTGYADSVKGRFTISRDNSKNTLYLQMNSLRAEDTAVYYCAGGGYAAFDYWGQGTLVTVSS
VL: DIQMTQSPATLSLSPGERATLSCRASQSVSSYLAWYQQKPGQAPRLLIYDASNRATGIPARFSGSGSGTDFTLTISSLEPEDFAVYYCQQRSNWPLTFGGG
notes: the VL entry stops within FR4
[1]
  binding result: binds
[2]
  binding result: binds

B5: P-D12 IgG (anti-Tie1 isolate p-D12, human IgG1) (antibody, V domains shown)
VH: EVQLLESGGGLVQPGGSLRLSCAASGFTFSGYGMHWVRQAPGKGLEWVSVISPSGGQTSYADSVKGRFTISRDNSKNTLYLQMNSLRAEDTAVYYCARDRQYYYGSGSLDYWGQGTLVTVSS
VL: DIQMTQSPSSLSASVGDRVTVTCRASQSISSYLNWYQQKPGKAPKLLIYAASSLQSGVPSRFSGGGSGTDFTLTISSLQPEDFATYFCLQDYKYPWTFGQG
notes: the VL entry stops within FR4
[1]
  binding result: binds
[2]
  binding result: binds

B6: germlined E3 Fab (light chain framework regions germlined to DPK4; heavy chain as parental) (Fab, V domains shown)
VH: EVQLLESGGGLVQPGGSLRLSCAASGFTFSMYGMVWVRQAPGKGLEWVSVISPSGGNTGYADSVKGRFTISRDNSKNTLYLQVNSLRAEDTAVYYCARAPRGYSYGYYYWGQGTLVTVSS
VL: DIQMTQSPSSLSASVGDRVTITCRASQGIGHYLAWYQQKPGKVPKLLIYTASTLQSGVPSRFSGSGSGTDFTLTISSLQPEDVATYYCQQFNSYPHTFGQGTRLEIK
notes: also called germlined Fab E3; E3 germlined
[3]
  Kd: 3.1 nM
  koff: 0.00104 s⁻¹
  kon: 340000 M⁻¹ s⁻¹
[4]
  Kd: 3.4 nM
  koff: 0.00102 s⁻¹
  kon: 300000 M⁻¹ s⁻¹

B7: E3 Fab (parental, soluble Fab) (Fab, V domains shown)
VH: EVQLLESGGGLVQPGGSLRLSCAASGFTFSMYGMVWVRQAPGKGLEWVSVISPSGGNTGYADSVKGRFTISRDNSKNTLYLQVNSLRAEDTAVYYCARAPRGYSYGYYYWGQGTLVTVSS
VL: DIQMTQSPLSLSASVGDRVTITCRASQGIGHYLAWYQQKPGKVPKLLIYTASTLQSGVPSRFSGSGSGTDFTLTINSLQPEDVATYYCQQFNSYPHTFGQGTRLDIK
notes: also called parental E3 Fab; parental Fab E3
[3]
  Kd: 3.9 nM
  koff: 0.00095 s⁻¹
  kon: 246000 M⁻¹ s⁻¹
[4]
  Kd: 2 nM
  koff: 0.00061 s⁻¹
  kon: 300000 M⁻¹ s⁻¹
[5]
  Kd: 12 nM
  koff: 0.00105 s⁻¹
  kon: 88100 M⁻¹ s⁻¹

B8: E3b Fab (germlined heavy chain and germlined light chain of E3) (Fab, V domains shown)
VH: EVQLLESGGGLVQPGGSLRLSCAASGFTFSMYGMVWVRQAPGKGLEWVSVISPSGGNTGYADSVKGRFTISRDNSKNTLYLQMNSLRAEDTAVYYCARAPRGYSYGYYYWGQGTLVTVSS
VL: DIQMTQSPSSLSASVGDRVTITCRASQGIGHYLAWYQQKPGKVPKLLIYTASTLQSGVPSRFSGSGSGTDFTLTISSLQPEDVATYYCQQFNSYPHTFGQGTRLEIK
notes: also called Fab E3b; germlined (E3b)
[5]
  Kd: 7 nM
  koff: 0.00101 s⁻¹
  kon: 136000 M⁻¹ s⁻¹
